{"source": "paper doi:10.1101/2025.03.01.640964", "about": "(bioRxiv, 2025)", "binders": {"B1": {"name": "N-terminally biotinylated FMNL1 peptide (peptide, UniProt O95466 190-213, looked up)", "peptide": "Biotin-KGPPSSVPKSRHLTIKLTPAHSRK"}}, "key": {"[1]": {"target": "SteC_(210-429) WT (Salmonella Typhimurium strain 14028s, UniProt D0ZIB5 210-429)", "test": "BLI; […] (1 ug/ml) […] (SA) biosensors; […]; Octet Red, 25 °C; 50 mM HEPES pH 7.5, 150 mM NaCl, 10 mM MgCl2, 0.5 mM TCEP, 0.05% Tween-20; […]", "conditions": "both partners purified"}, "[2]": {"target": "SteC_(210-429;K256H) (Salmonella Typhimurium strain 14028s, UniProt D0ZIB5 210-429, K256H)", "test": "BLI; […] (1 ug/ml) […] (SA) biosensors; […]; Octet Red, 25 °C; 50 mM HEPES pH 7.5, 150 mM NaCl, 10 mM MgCl2, 0.5 mM TCEP, 0.05% Tween-20; […]", "conditions": "both partners purified"}}, "note": "Ends that are not written are not given here. * marks the point of attachment. Biotin = O=C1N[C@H]2[C@H](CS[C@H]2CCCCC(=O)*)N1"}
{"binder": "B1", "values": [{"measurement": "Kd", "setting": "[1]", "value": 7.9, "unit": "µM"}, {"measurement": "Kd", "setting": "[2]", "value": 22, "unit": "µM"}]}
